The text below walks through data of paper PMC11231019, “A pH-dependent shift of redox cofactor specificity in a benzyl alcohol dehydrogenase of aromatoleum aromaticum EbN1” (Applied Microbiology and Biotechnology, 2024).

In data set [1] the target is T1, BaDH (benzyl alcohol dehydrogenase) (Aromatoleum aromaticum, UniProt Q5P459).
T1 construct: gene adh; full-length, C-terminal Twin-Strep-tag kept, expressed in E. coli BL21(DE3), Strep-tactin purified; Zn (catalytic) and Zn/Fe (structural)
T1 sequence (Q5P459 1-362): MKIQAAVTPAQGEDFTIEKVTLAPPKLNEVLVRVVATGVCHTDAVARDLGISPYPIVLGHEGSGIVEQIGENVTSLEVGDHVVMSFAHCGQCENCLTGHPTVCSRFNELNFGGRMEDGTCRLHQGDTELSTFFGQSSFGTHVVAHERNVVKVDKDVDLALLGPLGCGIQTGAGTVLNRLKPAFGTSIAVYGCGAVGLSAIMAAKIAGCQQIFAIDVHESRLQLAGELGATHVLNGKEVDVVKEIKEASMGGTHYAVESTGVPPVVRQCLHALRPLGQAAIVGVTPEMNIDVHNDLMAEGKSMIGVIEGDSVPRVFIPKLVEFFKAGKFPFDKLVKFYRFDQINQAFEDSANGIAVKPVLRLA
Nature of the data set: photometric NADH formation, […] nm; Michaelis-Menten with substrate inhibition fit. Type of data set: biochemical. The settings on record: substrate inhibition constant; NAD+, pH 8.0, 30 °C.

Substrate in data set [2]: OCc1ccccc1
Put plainly: purified protein. The settings on record: apparent, oxidation with NAD+, pH 8.0, 30 °C, substrate inhibition, kcat called overestimated by authors. In kind it is biochemical, Aromatoleum aromaticum.

Substrate in data set [3]: NC(=O)C1=CN([C@@H]2O[C@H](COP(=O)(O)OP(=O)(O)OC[C@H]3O[C@@H](n4cnc5c(N)ncnc54)[C@H](O)[C@@H]3O)[C@@H](O)[C@H]2O)C=CC1
Nature of the data set: purified protein. In kind it is biochemical, Aromatoleum aromaticum. The following applies: apparent, fixed benzaldehyde, pH 7.0, 30 °C, extrapolated, saturation not reached, probably underestimated per authors (text: no reliable constants), varied: cofactor.

Substrate in data set [4]: NC(=O)c1ccc[n+]([C@@H]2O[C@H](COP(=O)(O)OP(=O)(O)OC[C@H]3O[C@@H](n4cnc5c(N)ncnc54)[C@H](O)[C@@H]3O)[C@@H](O)[C@H]2O)c1
Nature of the data set: photometric NADH formation; Michaelis-Menten fit. Type of data set: biochemical, Aromatoleum aromaticum. The following applies: apparent, fixed benzyl alcohol, pH 8.0, 30 °C, varied: cofactor. An excerpt: photometric NADH formation; Michaelis-Menten fit on BaDH (benzyl alcohol dehydrogenase)

Substrate in data set [5]: O=Cc1ccccc1
Nature of the data set: photometric NADH consumption; Michaelis-Menten with substrate inhibition fit. In kind it is biochemical, Aromatoleum aromaticum. The settings on record: apparent, reduction with NADH, pH 7.0, 30 °C, Kis constrained to >= Km, kcat called overestimated by authors. An excerpt:
photometric NADH consumption; Michaelis-Menten with substrate inhibition fit on BaDH (benzyl alcohol dehydrogenase)

Substrate in data set [6]: NC(=O)C1=CN([C@@H]2O[C@H](COP(=O)(O)OP(=O)(O)OC[C@H]3O[C@@H](n4cnc5c(N)ncnc54)[C@H](OP(=O)(O)O)[C@@H]3O)[C@@H](O)[C@H]2O)C=CC1
Put plainly: photometric NADPH consumption; Hill fit with substrate inhibition. Type of data set: biochemical, Aromatoleum aromaticum. The settings on record: apparent, fixed benzaldehyde, pH 5.5, 30 °C, cooperative, Hill n 1.38, Kis constrained to Km, kcat called overestimated by authors, varied: cofactor. The source says: photometric NADPH consumption; Hill fit with substrate inhibition on BaDH (benzyl alcohol dehydrogenase)

Substrate in data set [7]: NC(=O)c1ccc[n+]([C@@H]2O[C@H](COP(=O)(O)OP(=O)(O)OC[C@H]3O[C@@H](n4cnc5c(N)ncnc54)[C@H](OP(=O)(O)O)[C@@H]3O)[C@@H](O)[C@H]2O)c1
Put plainly: photometric NADPH formation; Hill fit with substrate inhibition. In kind it is biochemical, Aromatoleum aromaticum. The following applies: apparent, fixed benzyl alcohol, pH 6.5, 30 °C, cooperative, Hill n 2.44, Kis constrained to Km, kcat called overestimated by authors, varied: cofactor. The source says:
photometric NADPH formation; Hill fit with substrate inhibition on BaDH (benzyl alcohol dehydrogenase)

In the case of `OCc1ccccc1` [BAlc, benzyl alcohol], in data set [1], the “Kis” value was determined as 4.37 mM.

B1: BaDH (benzyl alcohol dehydrogenase) (Aromatoleum aromaticum EbN1) (protein)
chain: MKIQAAVTPAQGEDFTIEKVTLAPPKLNEVLVRVVATGVCHTDAVARDLGISPYPIVLGHEGSGIVEQIGENVTSLEVGDHVVMSFAHCGQCENCLTGHPTVCSRFNELNFGGRMEDGTCRLHQGDTELSTFFGQSSFGTHVVAHERNVVKVDKDVDLALLGPLGCGIQTGAGTVLNRLKPAFGTSIAVYGCGAVGLSAIMAAKIAGCQQIFAIDVHESRLQLAGELGATHVLNGKEVDVVKEIKEASMGGTHYAVESTGVPPVVRQCLHALRPLGQAAIVGVTPEMNIDVHNDLMAEGKSMIGVIEGDSVPRVFIPKLVEFFKAGKFPFDKLVKFYRFDQINQAFEDSANGIAVKPVLRLA
notes: full-length, C-terminal Twin-Strep-tag kept, expressed in E. coli BL21(DE3), Strep-tactin purified; Zn (catalytic) and Zn/Fe (structural)
Turning to B1, the Km in “purified protein [2]” was 3620 µM; in “purified protein [3]”, 3690 µM; in data set [4], 1670 µM; in data set [5] it was 1780 µM. Moreover, the Vmax is 410 µmol/min/mg in the data set “purified protein [2]”; 320 µmol/min/mg in the data set “purified protein [3]”; 84.2 µmol/min/mg in data set [4]; 345 µmol/min/mg in data set [5]; 159 µmol/min/mg in data set [6]; 54.1 µmol/min/mg in data set [7]. Besides, the kcat in the data set “purified protein [2]” was 693 s⁻¹; in the data set “purified protein [3]”, 222 s⁻¹; in data set [4], 58.4 s⁻¹; in data set [5] it was 239 s⁻¹; in data set [6], 110 s⁻¹; in data set [7], 37.5 s⁻¹. Moreover, the kcat/Km is 191000 M⁻¹ s⁻¹ in the data set “purified protein [2]”; 60000 M⁻¹ s⁻¹ in “purified protein [3]”; 35000 M⁻¹ s⁻¹ in data set [4]; 134000 M⁻¹ s⁻¹ in data set [5]; 32000 M⁻¹ s⁻¹ in data set [6]; 16000 M⁻¹ s⁻¹ in data set [7]. For the same molecule, the K0.5 in data set [6] was 3.42 mM; in data set [7], 2.39 mM.
